Data from article PMC11243337, “Self-Responsive Fluorescence Aptasensor for Lactoferrin Determination in Dairy Products”.

Biological target: Lactoferrin (Lf) (bovine (cow's milk), UniProt P24627 20-708)
Experiment: fluorescence quenching (6-FAM); Tris-EDTA, no added ions; Lf 5 and 40 ug/mL; Tris-EDTA pH 8.0, no added salt, 25 C, 10 min; 90 uL of 50 nM aptamer + 100 uL Lf (0-100 ug/mL); Ex 485/Em 528 nm. Specificity section (alpha-La, beta-Lg, BSA)
Details: protein: commercial; label: 3'-6-FAM

Lactoferrin (Lf), sequence (P24627 20-708): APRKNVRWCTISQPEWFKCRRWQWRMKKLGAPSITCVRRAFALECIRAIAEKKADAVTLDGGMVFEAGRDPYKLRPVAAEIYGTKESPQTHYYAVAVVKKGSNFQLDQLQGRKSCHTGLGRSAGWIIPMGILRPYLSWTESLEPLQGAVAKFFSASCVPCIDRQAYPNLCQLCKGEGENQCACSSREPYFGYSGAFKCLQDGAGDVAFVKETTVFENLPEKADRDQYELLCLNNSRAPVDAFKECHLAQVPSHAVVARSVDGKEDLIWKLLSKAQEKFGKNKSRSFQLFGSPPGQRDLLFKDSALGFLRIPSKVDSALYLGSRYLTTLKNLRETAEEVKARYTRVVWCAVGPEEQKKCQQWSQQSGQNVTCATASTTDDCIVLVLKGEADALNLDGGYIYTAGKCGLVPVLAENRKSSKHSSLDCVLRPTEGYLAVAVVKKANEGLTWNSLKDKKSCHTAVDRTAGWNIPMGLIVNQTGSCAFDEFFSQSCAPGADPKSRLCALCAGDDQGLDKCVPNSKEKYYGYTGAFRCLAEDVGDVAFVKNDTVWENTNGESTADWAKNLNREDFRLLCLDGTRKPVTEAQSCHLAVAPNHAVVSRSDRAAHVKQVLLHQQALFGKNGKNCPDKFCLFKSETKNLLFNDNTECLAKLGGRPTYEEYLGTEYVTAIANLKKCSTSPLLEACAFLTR

Binder: TGGTGCTGCCCCTAGTCTCCGGCTGATAGCTGCTTCTTGG (ssDNA) [Lf aptamer, 3'-6-FAM]
- binding result: binds
